“And” between values parts separate entries of the source, which are not always exact repeats. Identical values can stand only once. Like-named read-outs stand apart in the source and are kept apart here. No end group written: not given here.
Legend:
[1] = biological target: Doc1-122–His6 (DocSTm toxin) (Salmonella typhimurium); test: SPR; Biacore S200; Doc-His6 captured on a Series S NTA chip (200-400 RU); peptide as analyte, single-cycle kinetics, six concentrations (3-fold dilutions), 30 uL/min; 22 C; 10 mM HEPES, 500 mM NaCl, 50 uM EDTA, 0.005% TWEEN 20, pH 8.0; kinetic 1:1 fit
[2] = biological target: Doc1-122–His6 (DocSTm toxin) (Salmonella typhimurium); test: as above; remark: listed apart in the source
[3] = biological target: Doc1-122–His6 (DocSTm toxin) (Salmonella typhimurium); test: as above; remark: listed apart in the source
[4] = biological target: Doc1-122–His6 (DocSTm toxin) (Salmonella typhimurium); test: as above; remark: listed apart in the source
[5] = biological target: Doc1-122–His6 (DocSTm toxin) (Salmonella typhimurium); test: as above; remark: listed apart in the source
[6] = biological target: Doc1-122–His6 (DocSTm toxin) (Salmonella typhimurium); test: as above; remark: listed apart in the source
[7] = biological target: Doc1-122–His6 (DocSTm toxin) (Salmonella typhimurium); test: SPR; Biacore S200; Doc-His6 captured on NTA chip; peptide as analyte, multi-cycle experiments up to 500 nM; 22 C; 10 mM HEPES, 500 mM NaCl, 50 uM EDTA, 0.005% TWEEN 20, pH 8.0; steady-state 1:1 fit
[8] = biological target: Doc1-122–His6 (DocSTm toxin) (Salmonella typhimurium); test: as above; remark: listed apart in the source
[9] = biological target: Doc1-122–His6 (DocSTm toxin) (Salmonella typhimurium); test: SPR; Biacore S200; Doc-His6 captured on a Series S NTA chip (200-400 RU); peptide as analyte, single-cycle kinetics, six concentrations (3-fold dilutions), 30 uL/min; 22 C; 10 mM HEPES, 500 mM NaCl, 50 uM EDTA, 0.005% TWEEN 20, pH 8.0; kinetic 1:1 fit; remark: listed apart in the source
[10] = biological target: Doc1-122–His6 (DocSTm toxin) (Salmonella typhimurium); test: as above; remark: listed apart in the source
[11] = biological target: Doc1-122–His6 (DocSTm toxin) (Salmonella typhimurium); test: as above; remark: listed apart in the source
[12] = biological target: Doc1-122–His6 (DocSTm toxin) (Salmonella typhimurium); test: as above; remark: listed apart in the source
[13] = biological target: Doc1-122–His6 (DocSTm toxin) (Salmonella typhimurium); test: as above; remark: listed apart in the source
[14] = biological target: Doc1-122–His6 (DocSTm toxin) (Salmonella typhimurium); test: as above; remark: listed apart in the source
[15] = biological target: Doc1-122–His6 (DocSTm toxin) (Salmonella typhimurium); test: as above; remark: listed apart in the source
[16] = biological target: Doc1-122–His6 (DocSTm toxin) (Salmonella typhimurium); test: as above; remark: listed apart in the source
[17] = biological target: Doc1-122–His6 (DocSTm toxin) (Salmonella typhimurium); test: as above; remark: listed apart in the source
[18] = biological target: Doc toxin of Salmonella enterica serovar Typhimurium (DocSTm) (Salmonella enterica serovar Typhimurium); test: SPR; DocSTm immobilised on a Series S NTA chip (150 nM, 200-400 RU); analytes in single-cycle kinetics, typically six concentrations, kinetic 1:1 fit; 22 °C; 10 mM HEPES, 500 mM NaCl, 50 μM EDTA, 0.005% TWEEN 20, pH 8.0
[19] = biological target: Doc1-122–His6 (DocSTm toxin) (Salmonella typhimurium); test: SPR; Biacore S200; Doc-His6 captured on a Series S NTA chip (200-400 RU); peptide as analyte, single-cycle kinetics, six concentrations (3-fold dilutions), 30 uL/min; 22 C; 10 mM HEPES, 500 mM NaCl, 50 uM EDTA, 0.005% TWEEN 20, pH 8.0; kinetic 1:1 fit; remark: listed apart in the source

## peptide 2 (PhdSTm52-73-M52A)
[1]
  Kd: 0.052 nM
  koff: 5.9e-05 s⁻¹
  kon: 1.14e+06 M⁻¹ s⁻¹
[2]
  Kd: 0.0523 nM and 0.0478 nM and 0.0551 nM
  koff: 5.44e-05 s⁻¹ and 5.13e-05 s⁻¹ and 7.14e-05 s⁻¹
  kon: 1.04e+06 M⁻¹ s⁻¹ and 1.07e+06 M⁻¹ s⁻¹ and 1.3e+06 M⁻¹ s⁻¹

## peptide 3 (PhdSTm52-73-D53A)
[1]
  koff: 6.5e-05 s⁻¹
  kon: 5.07e+06 M⁻¹ s⁻¹
[3]
  Kd: 0.0121 nM and 0.0166 nM and 0.00992 nM
  koff: 6.65e-05 s⁻¹ and 8.25e-05 s⁻¹ and 4.72e-05 s⁻¹
  kon: 5.48e+06 M⁻¹ s⁻¹ and 4.98e+06 M⁻¹ s⁻¹ and 4.76e+06 M⁻¹ s⁻¹

## peptide 4 (PhdSTm52-73-D54A)
[1]
  koff: 6.2e-05 s⁻¹
  kon: 4.73e+06 M⁻¹ s⁻¹
[4]
  Kd: 0.0128 nM and 0.0166 nM and 0.0101 nM
  koff: 8.12e-05 s⁻¹ and 4.76e-05 s⁻¹ and 5.84e-05 s⁻¹
  kon: 4.89e+06 M⁻¹ s⁻¹ and 4.73e+06 M⁻¹ s⁻¹ and 4.58e+06 M⁻¹ s⁻¹

## peptide 5 (PhdSTm52-73-E55A)
[1]
  Kd: 0.049 nM
  koff: 7.5e-05 s⁻¹
  kon: 1.54e+06 M⁻¹ s⁻¹
[5]
  Kd: 0.0489 nM and 0.0513 nM and 0.0469 nM
  koff: 7.11e-05 s⁻¹ and 7.49e-05 s⁻¹ and 8.02e-05 s⁻¹
  kon: 1.5e+06 1/(M s) (2×) and 1.7e+06 1/(M s)

## peptide 6 (PhdSTm52-73-F56A)
[1]
  koff: 0.000843 s⁻¹
  kon: 989000 M⁻¹ s⁻¹
[6]
  Kd: 1 nM and 0.919 nM and 0.745 nM
  koff: 0.000717 s⁻¹ and 0.000702 s⁻¹ and 0.00111 s⁻¹
  kon: 714000 M⁻¹ s⁻¹ and 764000 M⁻¹ s⁻¹ and 1.49e+06 M⁻¹ s⁻¹

## peptide 7 (PhdSTm52-73-I59A)
[7]
  Kd: 25.4 nM and 19.4 nM and 15.1 nM
[8]
  Kd: 19.9 nM

## peptide 8 (PhdSTm52-73-M60A)
[1]
  Kd: 0.553 nM
  koff: 0.00122 s⁻¹
  kon: 2.22e+06 M⁻¹ s⁻¹
[9]
  Kd: 0.67 nM and 0.611 nM and 0.485 nM
  koff: 0.000966 s⁻¹ and 0.00091 s⁻¹ and 0.00181 s⁻¹
  kon: 1.44e+06 M⁻¹ s⁻¹ and 1.49e+06 M⁻¹ s⁻¹ and 3.73e+06 M⁻¹ s⁻¹

## peptide 9 (PhdSTm52-73-V62A)
[1]
  Kd: 0.171 nM
  koff: 0.000388 s⁻¹
  kon: 2.27e+06 M⁻¹ s⁻¹
[10]
  Kd: 0.183 nM and 0.239 nM and 0.132 nM
  koff: 0.000329 s⁻¹ and 0.000394 s⁻¹ and 0.000442 s⁻¹
  kon: 1.8e+06 M⁻¹ s⁻¹ and 1.65e+06 M⁻¹ s⁻¹ and 3.35e+06 M⁻¹ s⁻¹

## peptide 10 (PhdSTm52-73-H63A)
[7]
  Kd: 12.2 nM and 13.1 nM and 40 nM
[8]
  Kd: 21.8 nM

## peptide 11 (PhdSTm52-73-G64A)
[1]
  Kd: 0.084 nM
  koff: 0.000197 s⁻¹
  kon: 2.35e+06 M⁻¹ s⁻¹
[11]
  Kd: 0.13 nM and 0.0743 nM and 0.0769 nM
  koff: 1.42e-05 s⁻¹ and 2.28e-05 s⁻¹ and 2.23e-05 s⁻¹
  kon: 1.08e+06 M⁻¹ s⁻¹ and 3.07e+06 M⁻¹ s⁻¹ and 2.9e+06 M⁻¹ s⁻¹

## peptide 13 (PhdSTm52-73-E66A)
[1]
  Kd: 0.042 nM
  koff: 0.000112 s⁻¹
  kon: 2.7e+06 M⁻¹ s⁻¹
[12]
  Kd: 0.0475 nM and 0.0451 nM and 0.0352 nM
  koff: 7.15e-05 s⁻¹ and 0.000147 s⁻¹ and 0.000118 s⁻¹
  kon: 1.5e+06 M⁻¹ s⁻¹ and 3.26e+06 M⁻¹ s⁻¹ and 3.35e+06 M⁻¹ s⁻¹

## peptide 14 (PhdSTm52-73-L67A)
[7]
  Kd: 25 nM and 23.9 nM and 15.4 nM
[8]
  Kd: 21.4 nM

## peptide 15 (PhdSTm52-73-R68A)
[13]
  Kd: 0.124 nM and 0.106 nM and 0.112 nM
  koff: 0.000244 s⁻¹ and 0.000166 s⁻¹ and 0.000144 s⁻¹
  kon: 1.95e+06 M⁻¹ s⁻¹ and 1.57e+06 M⁻¹ s⁻¹ and 1.29e+06 M⁻¹ s⁻¹
[1]
  Kd: 0.115 nM
  koff: 0.000185 s⁻¹
  kon: 1.6e+06 M⁻¹ s⁻¹

## peptide 16 (PhdSTm52-73-E69A)
[14]
  Kd: 0.0687 nM and 0.0703 nM and 0.0518 nM
  koff: 0.000151 s⁻¹ and 0.000169 s⁻¹ and 8.97e-05 s⁻¹
  kon: 2.2e+06 M⁻¹ s⁻¹ and 2.37e+06 M⁻¹ s⁻¹ and 1.73e+06 M⁻¹ s⁻¹
[1]
  Kd: 0.065 nM
  koff: 0.000136 s⁻¹
  kon: 2.1e+06 M⁻¹ s⁻¹

## peptide 17 (PhdSTm52-73-L70A)
[1]
  koff: 0.00597 s⁻¹
  kon: 3.84e+06 M⁻¹ s⁻¹
[15]
  Kd: 2.1 nM and 1.98 nM and 1.02 nM
  koff: 0.00602 s⁻¹ and 0.00634 s⁻¹ and 0.00554 s⁻¹
  kon: 2.87e+06 M⁻¹ s⁻¹ and 3.2e+06 M⁻¹ s⁻¹ and 5.44e+06 M⁻¹ s⁻¹

## peptide 18 (PhdSTm52-73-D72A)
[16]
  Kd: 0.0532 nM and 0.0189 nM and 0.0385 nM
  koff: 7.43e-05 s⁻¹ and 5.67e-05 s⁻¹ and 0.00012 s⁻¹
  kon: 1.4e+06 M⁻¹ s⁻¹ and 3.01e+06 M⁻¹ s⁻¹ and 3.12e+06 M⁻¹ s⁻¹
[1]
  Kd: 0.033 nM
  koff: 8.4e-05 s⁻¹
  kon: 2.51e+06 M⁻¹ s⁻¹

## peptide 20 (PhdSTm52-71)
[1]
  Kd: 0.428 nM
  koff: 0.000393 s⁻¹
  kon: 917000 M⁻¹ s⁻¹
[17]
  Kd: 0.447 nM and 0.414 nM and 0.424 nM
  koff: 0.000413 s⁻¹ and 0.000387 s⁻¹ and 0.000378 s⁻¹
  kon: 925000 M⁻¹ s⁻¹ and 934000 M⁻¹ s⁻¹ and 891000 M⁻¹ s⁻¹

B1: peptide 4 (Phd 52-73 D54A) (peptide)
peptide: Ac-WMDAEFAAIMAVHGNELRELADK
[18]
  Kd: 0.013 nM
  fold improvement of koff against peptide 1: 1.5 fold
  fold improvement of kon against peptide 1: 4 fold

B2: peptide 17 (Phd 52-73 L70A) (peptide)
peptide: Ac-WMDDEFAAIMAVHGNELREAADK
[18]
  Kd: 1.55 nM

B3: peptide 22 (PhdSTm55-71) (peptide)
peptide: Ac-EFAAIMAVHGNELRELA-OH
[19]
  Kd: 0.342 nM and 0.336 nM and 0.365 nM
  koff: 0.000521 s⁻¹ and 0.000492 s⁻¹ and 0.000495 s⁻¹
  kon: 1.5e+06 1/(M s) (2×) and 1.4e+06 1/(M s)
[1]
  koff: 0.000503 s⁻¹
  kon: 1.45e+06 M⁻¹ s⁻¹

B4: peptide 23 (PhdSTm56-70) (peptide)
peptide: Ac-FAAIMAVHGNELREL-OH
[19]
  Kd: 1.85 nM and 1.94 nM and 2.18 nM
  koff: 0.00284 s⁻¹ and 0.00279 s⁻¹ and 0.00276 s⁻¹
  kon: 1.53e+06 M⁻¹ s⁻¹ and 1.44e+06 M⁻¹ s⁻¹ and 1.26e+06 M⁻¹ s⁻¹
[1]
  koff: 0.00279 s⁻¹
  kon: 1.41e+06 M⁻¹ s⁻¹

B5: peptide 21 (PhdSTm55-73) (peptide)
peptide: Ac-EFAAIMAVHGNELRELADK-OH
[19]
  Kd: 0.41 nM and 0.412 nM and 0.365 nM
  koff: 0.000551 s⁻¹ and 0.000501 s⁻¹ and 0.000436 s⁻¹
  kon: 1.3e+06 1/(M s) and 1.2e+06 1/(M s) (2×)
[1]
  Kd: 0.396 nM
  koff: 0.000496 s⁻¹
  kon: 1.25e+06 M⁻¹ s⁻¹

B6: peptide 6 (Phd 52-73 F56A) (peptide)
peptide: Ac-WMDDEAAAIMAVHGNELRELADK
[18]
  Kd: 0.852 nM

B7: peptide 3 (Phd 52-73 D53A) (peptide)
peptide: Ac-WMADEFAAIMAVHGNELRELADK
[18]
  Kd: 0.013 nM
  fold improvement of koff against peptide 1: 1.5 fold
  fold improvement of kon against peptide 1: 4 fold
